Experimental data: article PMC12705702, “Structural insights into the atypical filament assembly of pyrin domain-containing IFI16” (The EMBO Journal, 2025)

Molecular target: the molecule itself
Test: cryo-EM structure; filament auto-assembled by recombinant IFI16^PYD; 73 uM in 40 mM HEPES pH 7.4, 160 mM NaCl, 1 mM EDTA, 1 mM DTT; helical reconstruction, 3.3 Å

B1: human IFI16 pyrin domain (IFI16^PYD, residues 1-94) with C-terminal His6-tag (domain or fragment, UniProt Q16666 1-94, looked up)
chain: MGKKYKNIVLLKGLEVINDYHFRMVKSLLSNDLKLNLKMREEYDKIQIADLMEEKFRGDAGLGKLIKIFEDIPTLEDLAETLKKEKLKVKGPAL
notes: Interferon-inducible protein 16 (IFI16), human, pyrin domain, residues 1-94; Assembles into a helical filament; the number of protomers in a filament is open-ended; also called recombinant IFI16^PYD; pET21b IFI16^PYD-His6; source: E. coli BL21(DE3), purified (Ni-NTA, Superdex 75 size exclusion)
B1: binds.
